Ends that are not written are not given here.
Biological target: LptDE complex from Shigella flexneri with a hexahistidine tag on LptE (Shigella flexneri, UniProt Q83SQ0;Q0T6Q1)
Assay: native MS

Chain of LptDE complex from Shigella flexneri with a hexahistidine tag on LptE (Q83SQ0 25-784, chain 1 of 2): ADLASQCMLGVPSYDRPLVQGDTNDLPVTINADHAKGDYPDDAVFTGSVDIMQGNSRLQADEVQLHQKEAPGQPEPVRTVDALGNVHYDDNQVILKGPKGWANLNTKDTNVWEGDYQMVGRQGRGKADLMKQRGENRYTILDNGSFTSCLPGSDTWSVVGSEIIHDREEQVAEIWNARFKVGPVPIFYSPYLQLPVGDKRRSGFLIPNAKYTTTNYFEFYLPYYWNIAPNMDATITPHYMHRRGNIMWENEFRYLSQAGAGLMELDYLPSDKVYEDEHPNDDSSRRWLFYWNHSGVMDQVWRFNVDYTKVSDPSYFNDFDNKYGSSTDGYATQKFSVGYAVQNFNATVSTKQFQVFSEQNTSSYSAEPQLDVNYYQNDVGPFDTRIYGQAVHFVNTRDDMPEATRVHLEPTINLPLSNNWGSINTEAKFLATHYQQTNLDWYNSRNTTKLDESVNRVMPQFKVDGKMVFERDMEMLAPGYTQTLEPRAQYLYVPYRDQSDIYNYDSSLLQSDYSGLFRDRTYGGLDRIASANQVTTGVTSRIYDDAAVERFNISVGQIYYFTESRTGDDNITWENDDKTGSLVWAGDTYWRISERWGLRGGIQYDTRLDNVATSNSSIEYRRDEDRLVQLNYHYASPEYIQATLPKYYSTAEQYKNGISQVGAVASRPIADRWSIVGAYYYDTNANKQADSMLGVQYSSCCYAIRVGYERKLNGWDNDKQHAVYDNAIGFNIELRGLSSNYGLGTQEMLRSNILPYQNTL
Chain of LptDE complex from Shigella flexneri with a hexahistidine tag on LptE (Q0T6Q1 19-193, chain 2 of 2): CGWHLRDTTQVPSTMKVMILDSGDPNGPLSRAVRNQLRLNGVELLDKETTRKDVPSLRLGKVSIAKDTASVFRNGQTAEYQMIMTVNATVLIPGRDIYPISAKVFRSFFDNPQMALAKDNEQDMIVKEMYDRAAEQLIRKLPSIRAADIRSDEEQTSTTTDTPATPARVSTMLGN

Binder	stoichiometry N
CGLKGPLYFPPADKNAPPPTKPVETQTQSTVPDKNDRATGDGPSQVNY (natural protein, also: three acyl chains (R1, R2, R3) on N-terminal Cys) [endogenous Escherichia coli lipoprotein YifL]	1
endogenous E. coli lipoprotein YedD (natural protein) CAEVENYNNVVKTPAPDWLAGYWQTKGPQRALVSPEAIGSLIVTKEGDTLDCRQWQRVIAVPGKLTLMSDDLTNVTVKRELYEVERDGNTIEYDGMTMERVDRPTAECAAALDKAPLPTPLP	1
